What was measured:
[1] = biological target: T1, Synthetic peptide substrate GLTNIKTEEISEISY-EVEFRWKK
T1 chain: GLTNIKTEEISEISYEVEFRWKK

[2] = biological target: T2, Synthetic peptide substrate SEISY-EVEFRWKK
T2 chain: SEISYEVEFRWKK

[3] = biological target: T3, Peptide substrate EIDL-MVLDWHDR
T3 chain: EIDLMVLDWHDR

B1: pQE70-BACE (M)R36GSFVE...QTDES432RS(His)6 (protein)
chain: MRGSFVEMVDNLRGKSGQGYYVEMTVGSPPQTLNILVDTGSSNFAVGAAPHPFLHRYYQRQLSSTYRDLRKGVYVPYTQGKWEGELGTDLVSIPHGPNVTVRANIAAITESDKFFINGSNWEGILGLAYAEIARPDDSLEPFFDSLVKQTHVPNLFSLQLCGAGFPLNQSEVLASVGGSMIIGGIDHSLYTGSLWYTPIRREWYYEVIIVRVEINGQDLKMDCKEYNYDKSIVDSGTTNLRLPKKVFEAAVKSIKAASSTEKFPDGFWLGEQLVCWQAGTTPWNIFPVISLYLMGEVTNQSFRITILPQQYLRPVEDVATSQDDCYKFAISQSSTGTVMGAVIMEGFYVVFDRARKRIGFAVSACHVHDEFRTAAVEGPFVTLDMEDCGYNIPQTDESRSHHHHHH
[1]
  Km: 5.4 µM
  Vmax (µmol min^-1mg^-1): 0.4
  kcat: 0.317 s⁻¹
  kcat/Km: 0.0581 sec^-1µM^-1
[2]
  Km: 55.5 µM
  Vmax (µmol min^-1mg^-1): 0.345
  kcat: 0.273 s⁻¹
  kcat/Km: 0.0049 sec^-1µM^-1

B2: CHO-BACE, recombinant human BACE construct Asp2-2LΔTM-His6 expressed in CHO cells (protein)
chain: TQHGIRLPLRSGLGGAPLGLRLPRETDEEPEEPGRRGSFVEMVDNLRGKSGQGYYVEMTVGSPPQTLNILVDTGSSNFAVGAAPHPFLHRYYQRQLSSTYRDLRKGVYVPYTQGKWEGELGTDLVSIPHGPNVTVRANIAAITESDKFFINGSNWEGILGLAYAEIARPDDSLEPFFDSLVKQTHVPNLFSLQLCGAGFPLNQSEVLASVGGSMIIGGIDHSLYTGSLWYTPIRREWYYEVIIVRVEINGQDLKMDCKEYNYDKSIVDSGTTNLRLPKKVFEAAVKSIKAASSTEKFPDGFWLGEQLVCWQAGTTPWNIFPVISLYLMGEVTNQSFRITILPQQYLRPVEDVATSQDDCYKFAISQSSTGTVMGAVIMEGFYVVFDRARKRIGFAVSACHVHDEFRTAAVEGPFVTLDMEDCGYNIPQTDESHHHHHH
[3]
  Km: 12 µM
  Vmax (µmol min^-1mg^-1): 0.0196
  kcat: 0.0155 s⁻¹
  kcat/Km: 0.0013 sec^-1µM^-1
[1]
  Km: 4.9 µM
  Vmax (µmol min^-1mg^-1): 0.435
  kcat: 0.345 s⁻¹
  kcat/Km: 0.0704 sec^-1µM^-1
[2]
  Km: 52 µM
  Vmax (µmol min^-1mg^-1): 0.294
  kcat: 0.233 s⁻¹
  kcat/Km: 0.0045 sec^-1µM^-1
